Measurements: patent US20120040375A1 (NATIONAL UNIVERSITY CORPORATION HOKKAIDO UNIVERSITY, published 2012)

Key:
Biotin-Tn(DT*R)-100 = biological target: T1, Biotin-Tn(DT*R)-100 (N-terminal Biotin-PEG-linker; Thr(GalNAcα) in each Asp-Thr-Arg (5 sites); C-terminal amide (NH2)); assay: SPR, Biacore T100, Biotin-Tn(DT*R)-100 on sensor chip SA
T1 construct: also called Compound No. 21; Compound 21

[1] = biological target: T2, biotin-labeled T-47D culture supernatant (MUC1) (human, UniProt P15941 24-1097, limits assumed, biotin-labeled with Sulfo-NHS-Biotin); assay: SPR, Biacore, biotin-labeled T-47D culture supernatant on sensor chip SA
T2 construct: The whole concentrated supernatant was biotinylated and put on the chip
T2 sequence (P15941 24-1097 limits assumed): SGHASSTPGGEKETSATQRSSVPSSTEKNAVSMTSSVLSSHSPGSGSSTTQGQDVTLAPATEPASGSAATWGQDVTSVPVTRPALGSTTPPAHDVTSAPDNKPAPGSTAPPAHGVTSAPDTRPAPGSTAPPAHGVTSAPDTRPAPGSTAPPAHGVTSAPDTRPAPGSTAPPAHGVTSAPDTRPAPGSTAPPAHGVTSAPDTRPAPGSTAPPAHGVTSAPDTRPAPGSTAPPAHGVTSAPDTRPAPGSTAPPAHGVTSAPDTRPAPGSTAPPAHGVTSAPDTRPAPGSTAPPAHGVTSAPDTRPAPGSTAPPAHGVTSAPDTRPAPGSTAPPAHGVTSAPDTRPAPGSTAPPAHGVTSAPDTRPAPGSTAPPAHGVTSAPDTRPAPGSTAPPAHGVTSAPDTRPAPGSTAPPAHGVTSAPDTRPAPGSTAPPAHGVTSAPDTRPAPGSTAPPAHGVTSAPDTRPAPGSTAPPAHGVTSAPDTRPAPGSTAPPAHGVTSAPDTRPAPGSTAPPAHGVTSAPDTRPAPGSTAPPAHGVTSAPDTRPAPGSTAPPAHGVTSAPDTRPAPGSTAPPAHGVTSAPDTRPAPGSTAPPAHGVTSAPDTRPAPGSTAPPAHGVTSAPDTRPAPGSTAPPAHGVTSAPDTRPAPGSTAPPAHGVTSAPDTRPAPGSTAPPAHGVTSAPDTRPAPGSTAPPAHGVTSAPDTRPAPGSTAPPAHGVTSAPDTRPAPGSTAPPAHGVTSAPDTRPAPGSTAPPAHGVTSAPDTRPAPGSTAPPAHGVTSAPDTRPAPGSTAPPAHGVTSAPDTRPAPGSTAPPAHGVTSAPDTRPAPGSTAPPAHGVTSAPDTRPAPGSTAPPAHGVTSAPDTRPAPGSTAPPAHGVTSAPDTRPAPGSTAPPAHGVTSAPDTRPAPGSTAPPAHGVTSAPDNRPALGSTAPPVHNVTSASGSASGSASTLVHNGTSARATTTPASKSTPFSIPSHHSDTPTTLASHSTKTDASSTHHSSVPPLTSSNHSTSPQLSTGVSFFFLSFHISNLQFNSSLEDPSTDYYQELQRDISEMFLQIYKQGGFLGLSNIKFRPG

T1 sequence (peptide, as listed by the source limits assumed): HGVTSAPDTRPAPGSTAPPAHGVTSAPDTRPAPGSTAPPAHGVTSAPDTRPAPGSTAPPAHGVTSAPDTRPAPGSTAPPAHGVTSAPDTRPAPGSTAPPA

B1: PankoMab (antibody, V domains shown)
VH: EVQLVESGGGLVQPGGSMRLSCVASGFPFSNYWMNWVRQAPGKGLEWVGEIRLKSNNYTTHYAESVKGRFTISRDDSKNSLYLQMNSLKTEDTAVYYCTRHYYFDYWGQGTLVTVSS
VL: DIVMTQSPLSNPVTPGEPASISCRSSKSLLHSNGITYFFWYLQKPGQSPQLLIYQMSNLASGVPDRFSGSGSGTDFTLRISRVEAEDVGVYYCAQNLELPPTFGQGTKVEIKR
- Kd (Biotin-Tn(DT*R)-100): 1500 nM
- koff (Biotin-Tn(DT*R)-100): 0.19 s⁻¹
- kon (Biotin-Tn(DT*R)-100): 120000 M⁻¹ s⁻¹
- Kd [1]: 100 nM
- koff [1]: 0.045 s⁻¹
- kon [1]: 440000 M⁻¹ s⁻¹
